Test system: MS2 coat protein
Assay: apparent KD of MS2 coat protein; designed switch direction (-1 OFF switch, 1 ON switch): -1; higher = weaker reporter binding
Outline: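 Designed RNA switches with common flanks were transcribed on Illumina chips by stalled E. coli RNA polymerase and titrated with SNAP-549-labelled MS2 coat protein, from 0.7 or 1.5 nM doubling to 3 µM, in Tris-HCl pH 7.5 buffer with KCl, MgCl2, BSA, DTT, tRNA and Tween-20. Steps lasted 0.8–1.5 h (lowest) to 10–20 min (highest). Titrations ran without input, with 200 uM small-molecule ligand, or with an oligonucleotide input. Normalised cluster fluorescence was curve-fitted, and apparent KD is the per-design median over clusters.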

[1] = Eterna round: R95, input ligand: microRNA oligo, concentration not stated
[2] = Eterna round: R95, input ligand: FMN 200 uM
[3] = Eterna round: R95, input ligand: none
[4] = input ligand: microRNA oligo, concentration not stated

“CUCAGACAUGAGGAUCACCCAUGUGAGGAUAUGAUGCAGCAGUGGUCUACGCUGUGCAUCAGAAGGCACAUGUG (puzzle: Exclusion 1)” was tested, and the “apparent KD of MS2 coat protein” value [1] was 33 nM.
In the case of “CUCAUGCCUGAGGAUAUGCUGUACAAAAGUACUGCAGAAGGCGGGACAUGAGGAUCACCCAUGUGGCGAAAGCC [Omei Ex G8] (Eterna round: R97, puzzle: Exclusion 6)”, the “apparent KD of MS2 coat protein” value (input ligand: FMN 200 uM) is reported as 78.7 nM and the “apparent KD of MS2 coat protein” value (input ligand: none) is reported as 519 nM.
“CUCCGACAUGAGGAUCACCCAUGUUAGGAUAUCCCACGCAGGUAGUGAGAGAAUCUGUGGAGAAGGAGCAGGGU [Eternabot (L2) Solution 74] (Eterna round: R97, puzzle: Exclusion 1)” was tested, and the “apparent KD of MS2 coat protein” value (input ligand: FMN 200 uM) was 21.9 nM and the “apparent KD of MS2 coat protein” value (input ligand: none) was 24.5 nM.
“CUCCUCGUGGCGCCUAAACACAUGAGGAUCACCCAUGUACAGGCUUUUUGCCGUCUUAUAAUAAAACCGAGGAUACG [Cezabi] (puzzle: Sensor v3, turn-off variant 1)” was tested, and the “apparent KD of MS2 coat protein” value [2] was 19.1 nM, the “apparent KD of MS2 coat protein” value [1] was 63.9 nM and the “apparent KD of MS2 coat protein” value [3] was 21.2 nM.
With “CUCGAGUUAGGAUAUGGCGGCGACUGUGUUCGCAGAUCGCACCAGAAGGAACAUGAGGAUCACCCAUGUGACGG [Eternabot (L1) Solution 42] (Eterna round: R97, puzzle: Exclusion 4)” the “apparent KD of MS2 coat protein” value (input ligand: FMN 200 uM) was 348 nM and the “apparent KD of MS2 coat protein” value (input ligand: none) was 89.7 nM.
“CUCUCACAUGAGGAUCACCCAUGUCAGGAUAUCUCAGUGCAUCCACACGGACGCAUCAAGAGAAGGGACAAAAC [Vinxlusion 2 - Jieux - Exclusion 1] (Eterna round: R97, puzzle: Exclusion 1)” was tested, and the “apparent KD of MS2 coat protein” value (input ligand: FMN 200 uM) was 95 nM and the “apparent KD of MS2 coat protein” value (input ligand: none) was 59.1 nM.
With “CUCUCGUGAGGAUAUCUCCGCGAGAAUAAUGUUACACGCGAAGAGAAGGCACAUGAGGAUCACCCAUGUUAAAC [Eternabot (L1) Solution 31] (Eterna round: R97, puzzle: Exclusion 4)” the “apparent KD of MS2 coat protein” value (input ligand: FMN 200 uM) was 230 nM and the “apparent KD of MS2 coat protein” value (input ligand: none) was 54.8 nM.
For “CUCUUGUCAGGAUAUCAACGCCAUCCACAUGGACGGCGAAAUGAGAAGGGACAUGAGGAUCACCCAUGUUAAAA [Xeveleqube] (puzzle: Exclusion 4)”, the “apparent KD of MS2 coat protein” value [2] was 27.3 nM, the “apparent KD of MS2 coat protein” value [1] was 117 nM and the “apparent KD of MS2 coat protein” value [3] was 139 nM.
For “CUCUUGUGAGGAUAUCAGGUGUGCUAGCGUACUGGUACAUCUGAGAAGGCACAUGAGGAUCACCCAUGUUUCAA [Mat - Exclusion 4 - Mod of JL - D41] (puzzle: Exclusion 4)”, the “apparent KD of MS2 coat protein” value [1] was 52.5 nM.
In the case of “CUGAAAGACGAAGGAUAUCCAGGCACCGGAGUAGGAGAAGGUCGUCCGGGUGUCCUAGAACUUGAGGAUCACCCAAGUAGAAGA [Mutated MS2 EX1.5] (Eterna round: R96, puzzle: Exclusion NG 1)”, the “apparent KD of MS2 coat protein” value (input ligand: FMN 200 uM) is reported as 34.4 nM, the “apparent KD of MS2 coat protein” value [4] is reported as 36.9 nM and the “apparent KD of MS2 coat protein” value (input ligand: none) is reported as 24.7 nM.
In the case of “CUGAAAGACGAAGGAUAUCCAGGCGCCGGCGUAGGAGAAGGUCGUCCGGGUGUCCUAGAACUUGAGGAUCACCCAAGUAGAAGA [Mutated MS2 EX1.14] (Eterna round: R96, puzzle: Exclusion NG 1)”, the “apparent KD of MS2 coat protein” value (input ligand: FMN 200 uM) is reported as 36.8 nM, the “apparent KD of MS2 coat protein” value [4] is reported as 24.9 nM and the “apparent KD of MS2 coat protein” value (input ligand: none) is reported as 53.1 nM.
For “CUGAACCCGGUAGGAUAUAUUGUGGGCGGGCGUGGAACGACAUGAGGAUCACCCAUGUAAUUGAGGUAGAAGGGCCGAGAGGUU [Excl-NG2-LRO16] (Eterna round: R96, puzzle: Exclusion NG 2)”, the “apparent KD of MS2 coat protein” value (input ligand: FMN 200 uM) was 38.5 nM, the “apparent KD of MS2 coat protein” value [4] was 30.4 nM and the “apparent KD of MS2 coat protein” value (input ligand: none) was 43.8 nM.
“CUGAGCUGAGGAUAUACAUGAGGAUCACCCAUGUAAAGUAGCUUGCGUACAGGCAGAUGUAGAAGGCAGUUCGG [Mod of JL 2 - Jieux - Exclusion 3] (Eterna round: R97, puzzle: Exclusion 3)” was tested, and the “apparent KD of MS2 coat protein” value (input ligand: FMN 200 uM) was 34.7 nM and the “apparent KD of MS2 coat protein” value (input ligand: none) was 20.5 nM.
For “CUGAGCUGAGGAUAUACAUGAGGAUCACCCAUGUGUUCGAGCUUGCGUACAGGCAGAUGUAGAAGGCAGUUCGG [JL-ex3-3.34 Brourd mod] (puzzle: Exclusion 3)”, the “apparent KD of MS2 coat protein” value [1] was 23.8 nM.
For “CUGAGGUAGCGGUCCUAUGACAUGAGGAUCACCCAUGUACCUUGCUUUGAGCAAUUUGCUCGUCUUAUGAUUCUCGG [Mat - Sensor v3 - turn-off var 1 - JL Mod - D46] (puzzle: Sensor v3, turn-off variant 1)”, the “apparent KD of MS2 coat protein” value [2] was 446 nM, the “apparent KD of MS2 coat protein” value [1] was 468 nM and the “apparent KD of MS2 coat protein” value [3] was 533 nM.
“CUGAGGUAGCGGUCCUAUGACAUGAGGAUCACCCAUGUACCUUGCUUUGAGCUUUUUGCUCGUCUUAUGAUUCUCGG [JL Atriat mod 6] (puzzle: Sensor v3, turn-off variant 1)” was tested, and the “apparent KD of MS2 coat protein” value [2] was 472 nM, the “apparent KD of MS2 coat protein” value [1] was 283 nM and the “apparent KD of MS2 coat protein” value [3] was 462 nM.
For “CUGAGGUAGCGGUCCUAUGACAUGAGGAUCACCCAUGUGCCUUGCUACAAGCUUUUUGCUCGUCUUAUGAUUCUCGG [JL Atriat mod 9] (puzzle: Sensor v3, turn-off variant 1)”, the “apparent KD of MS2 coat protein” value [2] was 47.8 nM, the “apparent KD of MS2 coat protein” value [1] was 107 nM and the “apparent KD of MS2 coat protein” value [3] was 51.9 nM.
With “CUGAUGUGAGGAUAUGUGAUCUGCCUUCUAUGUAGAUGAUCACAGAAGGCACAUGAGGAUCACCCAUGUAGAUC [Ex4 - 3 - 26] (Eterna round: R96, puzzle: Exclusion 4)” the “apparent KD of MS2 coat protein” value (input ligand: FMN 200 uM) was 129 nM, the “apparent KD of MS2 coat protein” value [4] was 57.3 nM and the “apparent KD of MS2 coat protein” value (input ligand: none) was 99.4 nM.
For “CUGAUGUGAGGAUAUGUGAUCUGCCUUCUAUGUAGAUGAUCACAGAAGGCACAUGAGGAUCACCCAUGUAGAUC [Ex4 - 3 - 26] (puzzle: Exclusion 4)”, the “apparent KD of MS2 coat protein” value [1] was 69.7 nM.
For “CUGCUCCGUGUAGGAUAUGCAUACUCCCAUUAUGCAGAAGGACAUGAGGAUCACCCAUGUAUGUUAUUAUCAUGUGUUGCGUGC [Design 12] (Eterna round: R96, puzzle: Exclusion NG 1)”, the “apparent KD of MS2 coat protein” value [4] was 30 nM.
For “CUGCUGGAGCUUUGCUUUAGUCGUACAUGAGGAUCACCCAUGUAGGAUAUGGUAGGCUUUGCUUACUAGAAGGAUAGAGUGGUC [salish99_ExNG3_r04_606] (Eterna round: R96, puzzle: Exclusion NG 3)”, the “apparent KD of MS2 coat protein” value (input ligand: FMN 200 uM) was 226 nM, the “apparent KD of MS2 coat protein” value [4] was 66.6 nM and the “apparent KD of MS2 coat protein” value (input ligand: none) was 62 nM.
For “CUGGACUGAGGAUAUUGUGCUGCUGACAUGAGGAUCACCCAUGUAUGUUAACUCGGCCGUCGAGAAGGCAGACAGG [BotMod 18 - Jieux - Exclusion 5] (Eterna round: R97, puzzle: Exclusion 5)”, the “apparent KD of MS2 coat protein” value (input ligand: FMN 200 uM) was 16.5 nM and the “apparent KD of MS2 coat protein” value (input ligand: none) was 19.1 nM.
With “CUGGUCCGAGGAUAUAUGAUGUGAUACAUGAGGAUCACCCAUGUUAUAUUAUGGAUGUAAAUAGAAGGCGGACUAG [Mat - Exclusion 5 - JL mod - D71] (puzzle: Exclusion 5)” the “apparent KD of MS2 coat protein” value [2] was 71.2 nM, the “apparent KD of MS2 coat protein” value [1] was 72.2 nM and the “apparent KD of MS2 coat protein” value [3] was 73.9 nM.
With “CUGGUCCGAGGAUAUAUUAAGUGAAACAUGAGGAUCACCCAUGUAAUUUAAUGGAUGUAAAUAGAAGGCGGACUAG [Mat - Exclusion 5 - JL mod - D39] (puzzle: Exclusion 5)” the “apparent KD of MS2 coat protein” value [2] was 38.9 nM, the “apparent KD of MS2 coat protein” value [1] was 35.3 nM and the “apparent KD of MS2 coat protein” value [3] was 36.4 nM.
In the case of “CUGGUCCGAGGAUAUAUUAAGUGAUACAUGAGGAUCACCCAUGUUAUUUGAUGGAUGUAAAUAGAAGGCGGACUAG [JL-ex5-3.17] (puzzle: Exclusion 5)”, the “apparent KD of MS2 coat protein” value [2] is reported as 37.1 nM, the “apparent KD of MS2 coat protein” value [1] is reported as 38.9 nM and the “apparent KD of MS2 coat protein” value [3] is reported as 45.2 nM.
“CUGGUCCGAGGAUAUAUUAUGUGAUACAUGAGGAUCACCCAUGUUAUAUGAUGGAUGUAAAUAGAAGGCGGACUAG [JL-ex5-3.15] (puzzle: Exclusion 5)” was tested, and the “apparent KD of MS2 coat protein” value [2] was 48 nM, the “apparent KD of MS2 coat protein” value [1] was 43.4 nM and the “apparent KD of MS2 coat protein” value [3] was 58.5 nM.
“CUGGUGUGAGGAUAUCAGGACACGCCCGAGGGCGUGUCAAAUGAGAAGGCACAUGAGGAUCACCCAUGUGGGAC [Atisrage] (puzzle: Exclusion 4)” was tested, and the “apparent KD of MS2 coat protein” value [1] was 39.8 nM.
“CUGUAACGAGCGUGAGCCUACAUGAGGAUCACCCAUGUGCUCGUCUUAUAACGUACUGUCACGUUAGUGAUAGUGCG [Sensor v3, turn-off variant 1 (MOD of Eli's v1-13 v.3)] (puzzle: Sensor v3, turn-off variant 1)” was tested, and the “apparent KD of MS2 coat protein” value [2] was 115 nM, the “apparent KD of MS2 coat protein” value [1] was 297 nM and the “apparent KD of MS2 coat protein” value [3] was 104 nM.
With “CUGUAGUCAGGAUAUACAUGAGGAUCACCCAUGUAAAAUUUUAAUUUAAUUUGAAGGUGUAGAAGGGACCAGUC [Ex3 #26] (Eterna round: R97, puzzle: Exclusion 3)” the “apparent KD of MS2 coat protein” value (input ligand: FMN 200 uM) was 30.1 nM and the “apparent KD of MS2 coat protein” value (input ligand: none) was 38.5 nM.
“CUGUGCACGCUGCGGUCCUACAUGAGGAUCACCCAUGUGGUCUGGUGGCGUGGGUCGCCGGACUUGGCUCGUCUUGA [salish99_S_TOV1_R5_023] (Eterna round: R97, puzzle: Sensor, turn-off variant 1)” was tested, and the “apparent KD of MS2 coat protein” value (input ligand: FMN 200 uM) was 19.1 nM and the “apparent KD of MS2 coat protein” value (input ligand: none) was 19.2 nM.
For “CUGUUCCAUGUAGGAUAUGCAUAUUCUCAUUAUGCAGAAGGACAUGAGGAUCACCCAUGUAUGUUAUUAUCAUAUGUUACAUGU [Design 4] (Eterna round: R96, puzzle: Exclusion NG 1)”, the “apparent KD of MS2 coat protein” value [4] was 27.2 nM.

Reference: the supplement of paper PMC9170038
